Experimental data published in the Immune Epitope Database (IEDB).
Each block holds one sequence with its values, some of them ahead of it.

Assays:
[1] = molecular target: HLA-C*07:02; assay: IEDB peptide-MHC binding, purified MHC/direct/fluorescence; filed as Kd, often an IC50 or EC50 that approximates it; ≥ and ≤ were set here for values at or beyond the usual limits of such assays; conditions: source organism: SARS-CoV1
[2] = molecular target: HLA-A*23:01; assay: IEDB peptide-MHC binding, purified MHC/competitive/radioactivity; filed as Kd, often an IC50 or EC50 that approximates it; ≥ and ≤ were set here for values at or beyond the usual limits of such assays; conditions: source organism: SARS coronavirus Tor2
[3] = molecular target: HLA-A*30:02; assay: as above; conditions: source organism: SARS coronavirus Tor2
[4] = molecular target: HLA-A*26:01; assay: as above; conditions: source organism: SARS coronavirus Tor2
[5] = molecular target: HLA-A*01:01; assay: as above; conditions: source organism: SARS coronavirus Tor2
[6] = molecular target: HLA-A*29:02; assay: as above; conditions: source organism: SARS coronavirus Tor2
[7] = molecular target: HLA-A*24:02; assay: IEDB peptide-MHC binding, purified MHC/competitive/fluorescence; filed as Kd, often an IC50 or EC50 that approximates it; ≥ and ≤ were set here for values at or beyond the usual limits of such assays
[8] = molecular target: HLA-B*14:02; assay: IEDB peptide-MHC binding, purified MHC/competitive/fluorescence; ≥ and ≤ were set here for values at or beyond the usual limits of such assays
[9] = molecular target: HLA-B*37:01; assay: as above
[10] = molecular target: HLA-A*03:01; assay: as above
[11] = molecular target: HLA-B*40:02; assay: as above
[12] = molecular target: HLA-A*11:01; assay: as above
[13] = molecular target: HLA-B*58:01; assay: as above
[14] = molecular target: HLA-B*53:01; assay: as above
[15] = molecular target: HLA-A*02:01; assay: as above
[16] = molecular target: HLA-A*31:01; assay: as above
[17] = molecular target: HLA-B*44:03; assay: as above
[18] = molecular target: HLA-A*24:02; assay: as above
[19] = molecular target: HLA-B*08:01; assay: as above
[20] = molecular target: HLA-B*07:02; assay: as above
[21] = molecular target: HLA-A*25:01; assay: as above
[22] = molecular target: HLA-B*18:01; assay: as above
[23] = molecular target: HLA-B*51:01; assay: as above
[24] = molecular target: HLA-A*01:01; assay: as above
[25] = molecular target: HLA-B*35:01; assay: as above
[26] = molecular target: HLA-A*29:02; assay: as above
[27] = molecular target: HLA-A*68:02; assay: as above
[28] = molecular target: HLA-A*02:06; assay: IEDB peptide-MHC binding, purified MHC/competitive/fluorescence; filed as Kd, often an IC50 or EC50 that approximates it; ≥ and ≤ were set here for values at or beyond the usual limits of such assays; conditions: source organism: Pseudomonas sp. MIS38
[29] = molecular target: HLA-A*03:01; assay: as above; conditions: source organism: Pseudomonas sp. MIS38
[30] = molecular target: HLA-A*02:50; assay: as above; conditions: source organism: Pseudomonas sp. MIS38
[31] = molecular target: HLA-A*69:01; assay: as above; conditions: source organism: Pseudomonas sp. MIS38
[32] = molecular target: HLA-A*11:01; assay: as above; conditions: source organism: Pseudomonas sp. MIS38
[33] = molecular target: HLA-A*30:01; assay: as above; conditions: source organism: Pseudomonas sp. MIS38
[34] = molecular target: HLA-A*02:16; assay: as above; conditions: source organism: Pseudomonas sp. MIS38
[35] = molecular target: HLA-B*58:01; assay: as above; conditions: source organism: Pseudomonas sp. MIS38
[36] = molecular target: HLA-B*27:05; assay: as above; conditions: source organism: Pseudomonas sp. MIS38
[37] = molecular target: HLA-B*15:01; assay: as above; conditions: source organism: Pseudomonas sp. MIS38
[38] = molecular target: HLA-A*02:12; assay: as above; conditions: source organism: Pseudomonas sp. MIS38
[39] = molecular target: HLA-A*02:01; assay: as above; conditions: source organism: Pseudomonas sp. MIS38
[40] = molecular target: HLA-A*02:03; assay: as above; conditions: source organism: Pseudomonas sp. MIS38
[41] = molecular target: HLA-A*02:11; assay: as above; conditions: source organism: Pseudomonas sp. MIS38
[42] = molecular target: HLA-B*07:02; assay: as above; conditions: source organism: Pseudomonas sp. MIS38
[43] = molecular target: HLA-A*02:19; assay: as above; conditions: source organism: Pseudomonas sp. MIS38
[44] = molecular target: HLA-A*01:01; assay: as above; conditions: source organism: Pseudomonas sp. MIS38
[45] = molecular target: HLA-B*40:01; assay: as above; conditions: source organism: Pseudomonas sp. MIS38
[46] = source organism: Gorilla gorilla gorilla
[47] = source organism: Monodelphis domestica

Sequence: NYMPYVFTL
- Kd [1]: ≤ 1 nM
- Kd [2]: 6.37 nM
- Kd [3]: 18.2 µM
- Kd [4]: ≥ 51.8 µM
- Kd [5]: ≥ 78.1 µM
- Kd [6]: 369 nM
- Kd ([7]; source organism: SARS-CoV1): ≤ 0.0001 µM

- IC50 [8, 46]: ≥ 20 µM
- IC50 [9, 46]: ≥ 20 µM
- IC50 [10, 46]: ≥ 20 µM
- IC50 [11, 46]: ≥ 20 µM
- IC50 [12, 46]: ≥ 20000 nM
- IC50 [13, 46]: ≥ 20 µM
- IC50 [14, 46]: ≥ 20 µM
- IC50 [15, 46]: ≥ 20 µM
- IC50 [16, 46]: ≥ 20 µM
- IC50 [17, 46]: ≥ 20 µM
- IC50 [18, 46]: 161 nM
- IC50 [19, 46]: ≥ 20 µM
- IC50 [20, 46]: 17.3 µM
- IC50 [21, 46]: ≥ 20 µM
- IC50 [22, 46]: ≥ 20 µM
- IC50 [23, 46]: ≥ 20 µM
- IC50 [24, 46]: ≥ 20 µM
- IC50 [25, 46]: ≥ 20 µM
- IC50 [26, 46]: ≥ 20 µM
- IC50 [27, 46]: ≥ 20 µM
Sequence: RYSHWTKL

- Kd [28]: 2.3 nM
- Kd [29]: ≥ 20 µM
- Kd [30]: 30 nM
- Kd [31]: 2000 nM
- Kd [32]: ≥ 20 µM
- Kd [33]: ≥ 20 µM
- Kd [34]: 0.5 nM
- Kd [35]: ≥ 20 µM
- Kd [36]: ≥ 20 µM
- Kd [37]: 3.35 µM
- Kd [38]: 1.9 nM
- Kd [39]: 60.2 nM
- Kd [40]: 4.2 nM
- Kd ([7]; source organism: Pseudomonas sp. MIS38): ≥ 20 µM
- Kd [41]: 9.4 nM
- Kd [42]: ≥ 20 µM
- Kd [43]: 11.4 nM
- Kd [44]: ≥ 20 µM
- Kd [45]: ≥ 20 µM
Sequence: YMLKDSAPT

- IC50 [8, 47]: ≥ 20 µM
- IC50 [9, 47]: ≥ 20 µM
- IC50 [10, 47]: ≥ 20 µM
- IC50 [11, 47]: ≥ 20 µM
- IC50 [12, 47]: 2900 nM
- IC50 [13, 47]: ≥ 20 µM
- IC50 [14, 47]: ≥ 20 µM
- IC50 [15, 47]: ≥ 20 µM
- IC50 [16, 47]: ≥ 20 µM
- IC50 [17, 47]: ≥ 20 µM
- IC50 [18, 47]: ≥ 20000 nM
- IC50 [19, 47]: ≥ 20 µM
- IC50 [20, 47]: ≥ 20 µM
- IC50 [21, 47]: ≥ 20 µM
- IC50 [22, 47]: ≥ 20 µM
- IC50 [23, 47]: ≥ 20 µM
- IC50 [24, 47]: ≥ 20 µM
- IC50 [25, 47]: ≥ 20 µM
- IC50 [26, 47]: ≥ 20 µM
- IC50 [27, 47]: ≥ 20 µM
Sequence: YSLEYFQFVKK
